Test results as given in paper PMC2886353 (The Journal of Cell Biology, 2010).

B1: KIF17 (1-846)-3xmCit (domain or fragment, human, UniProt Q9P2E2-1 1-846, looked up)
chain: MASEAVKVVVRCRPMNQRERELRCQPVVTVDCARAQCCIQNPGAADEPPKQFTFDGAYHVDHVTEQIYNEIAYPLVEGVTEGYNGTIFAYGQTGSGKSFTMQGLPDPPSQRGIIPRAFEHVFESVQCAENTKFLVRASYLEIYNEDVRDLLGADTKQKLELKEHPEKGVYVKGLSMHTVHSVAQCEHIMETGWKNRSVGYTLMNKDSSRSHSIFTISIEMSAVDERGKDHLRAGKLNLVDLAGSERQSKTGATGERLKEATKINLSLSALGNVISALVDGRCKHVPYRDSKLTRLLQDSLGGNTKTLMVACLSPADNNYDETLSTLRYANRAKNIRNKPRINEDPKDALLREYQEEIKKLKAILTQQMSPSSLSALLSRQVPPDPVQVEEKLLPQPVIQHDVEAEKQLIREEYEERLARLKADYKAEQESRARLEEDITAMRNSYDVRLSTLEENLRKETEAVLQVGVLYKAEVMSRAEFASSAEYPPAFQYETVVKPKVFSTTDTLPSDDVSKTQVSSRFAELPKVEPSKSEISLGSSESSSLEETSVSEAFPGPEEPSNVEVSMPTEESRSRYFLDECLGQEAAGHLLGEQNYLPQEEPQEVPLQGLLGLQDPFAEVEAKLARLSSTVARTDAPQADVPKVPVQVPAPTDLLEPSDARPEAEAADDFPPRPEVDLASEVALEVVRTAEPGVWLEAQAPVALVAQPEPLPATAGVKRESVGMEVAVLTDDPLPVVDQQQVLARLQLLEQQVVGGEQAKNKDLKEKHKRRKRYADERRKQLVAALQNSDEDSGDWVLLNVYDSIQEEVRAKSKLLEKMQRKLRAAEVEIKDLQSEFQLEKIDYLAT
B2: KIF17 (1-738)-3xmCit (domain or fragment, human, UniProt Q9P2E2-1 1-738, looked up)
chain: MASEAVKVVVRCRPMNQRERELRCQPVVTVDCARAQCCIQNPGAADEPPKQFTFDGAYHVDHVTEQIYNEIAYPLVEGVTEGYNGTIFAYGQTGSGKSFTMQGLPDPPSQRGIIPRAFEHVFESVQCAENTKFLVRASYLEIYNEDVRDLLGADTKQKLELKEHPEKGVYVKGLSMHTVHSVAQCEHIMETGWKNRSVGYTLMNKDSSRSHSIFTISIEMSAVDERGKDHLRAGKLNLVDLAGSERQSKTGATGERLKEATKINLSLSALGNVISALVDGRCKHVPYRDSKLTRLLQDSLGGNTKTLMVACLSPADNNYDETLSTLRYANRAKNIRNKPRINEDPKDALLREYQEEIKKLKAILTQQMSPSSLSALLSRQVPPDPVQVEEKLLPQPVIQHDVEAEKQLIREEYEERLARLKADYKAEQESRARLEEDITAMRNSYDVRLSTLEENLRKETEAVLQVGVLYKAEVMSRAEFASSAEYPPAFQYETVVKPKVFSTTDTLPSDDVSKTQVSSRFAELPKVEPSKSEISLGSSESSSLEETSVSEAFPGPEEPSNVEVSMPTEESRSRYFLDECLGQEAAGHLLGEQNYLPQEEPQEVPLQGLLGLQDPFAEVEAKLARLSSTVARTDAPQADVPKVPVQVPAPTDLLEPSDARPEAEAADDFPPRPEVDLASEVALEVVRTAEPGVWLEAQAPVALVAQPEPLPATAGVKRESVGMEVAVLTDDPLPVVDQ
B3: KIF17 (1-490)-3xmCit (domain or fragment, human, UniProt Q9P2E2-1 1-490, looked up)
chain: MASEAVKVVVRCRPMNQRERELRCQPVVTVDCARAQCCIQNPGAADEPPKQFTFDGAYHVDHVTEQIYNEIAYPLVEGVTEGYNGTIFAYGQTGSGKSFTMQGLPDPPSQRGIIPRAFEHVFESVQCAENTKFLVRASYLEIYNEDVRDLLGADTKQKLELKEHPEKGVYVKGLSMHTVHSVAQCEHIMETGWKNRSVGYTLMNKDSSRSHSIFTISIEMSAVDERGKDHLRAGKLNLVDLAGSERQSKTGATGERLKEATKINLSLSALGNVISALVDGRCKHVPYRDSKLTRLLQDSLGGNTKTLMVACLSPADNNYDETLSTLRYANRAKNIRNKPRINEDPKDALLREYQEEIKKLKAILTQQMSPSSLSALLSRQVPPDPVQVEEKLLPQPVIQHDVEAEKQLIREEYEERLARLKADYKAEQESRARLEEDITAMRNSYDVRLSTLEENLRKETEAVLQVGVLYKAEVMSRAEFASSAEYPPAF
B4: KIF17 (1-795)-3xmCit (domain or fragment, human, UniProt Q9P2E2-1 1-795, looked up)
chain: MASEAVKVVVRCRPMNQRERELRCQPVVTVDCARAQCCIQNPGAADEPPKQFTFDGAYHVDHVTEQIYNEIAYPLVEGVTEGYNGTIFAYGQTGSGKSFTMQGLPDPPSQRGIIPRAFEHVFESVQCAENTKFLVRASYLEIYNEDVRDLLGADTKQKLELKEHPEKGVYVKGLSMHTVHSVAQCEHIMETGWKNRSVGYTLMNKDSSRSHSIFTISIEMSAVDERGKDHLRAGKLNLVDLAGSERQSKTGATGERLKEATKINLSLSALGNVISALVDGRCKHVPYRDSKLTRLLQDSLGGNTKTLMVACLSPADNNYDETLSTLRYANRAKNIRNKPRINEDPKDALLREYQEEIKKLKAILTQQMSPSSLSALLSRQVPPDPVQVEEKLLPQPVIQHDVEAEKQLIREEYEERLARLKADYKAEQESRARLEEDITAMRNSYDVRLSTLEENLRKETEAVLQVGVLYKAEVMSRAEFASSAEYPPAFQYETVVKPKVFSTTDTLPSDDVSKTQVSSRFAELPKVEPSKSEISLGSSESSSLEETSVSEAFPGPEEPSNVEVSMPTEESRSRYFLDECLGQEAAGHLLGEQNYLPQEEPQEVPLQGLLGLQDPFAEVEAKLARLSSTVARTDAPQADVPKVPVQVPAPTDLLEPSDARPEAEAADDFPPRPEVDLASEVALEVVRTAEPGVWLEAQAPVALVAQPEPLPATAGVKRESVGMEVAVLTDDPLPVVDQQQVLARLQLLEQQVVGGEQAKNKDLKEKHKRRKRYADERRKQLVAALQNSDEDSGDW
B5: KIF17 (1-369)-3xmCit (domain or fragment, human, UniProt Q9P2E2-1 1-369, looked up)
chain: MASEAVKVVVRCRPMNQRERELRCQPVVTVDCARAQCCIQNPGAADEPPKQFTFDGAYHVDHVTEQIYNEIAYPLVEGVTEGYNGTIFAYGQTGSGKSFTMQGLPDPPSQRGIIPRAFEHVFESVQCAENTKFLVRASYLEIYNEDVRDLLGADTKQKLELKEHPEKGVYVKGLSMHTVHSVAQCEHIMETGWKNRSVGYTLMNKDSSRSHSIFTISIEMSAVDERGKDHLRAGKLNLVDLAGSERQSKTGATGERLKEATKINLSLSALGNVISALVDGRCKHVPYRDSKLTRLLQDSLGGNTKTLMVACLSPADNNYDETLSTLRYANRAKNIRNKPRINEDPKDALLREYQEEIKKLKAILTQQMS

Biological target: the molecule itself
Assay: single-molecule step-wise photobleaching

Stoichiometry N, 2:
B1
B2
B3
B4
B5
